Test results published in patent publication US20230340151A1 (Pfizer, published 2023).

How the values were obtained:
Assay in all cases: flow cytometry on cells displaying the construct
[1] = molecular target: CID1873 (human GUCY2c patch mutant) (human/chicken)
Excerpt: (§1) Cells were then washed three times with PBS+0.5% BSA buffer. […] Cells were washed three times with PBS+0.5% BSA buffer and then analyzed on a flow cytometer.
(§2) MFI (median fluorescence intensity) of anti-GUCY2c antibody binding to the cells was normalized to expression on cell surface measured by MFI of anti-tag antibodies. All the cells expressed V5 and HA on the cell surface for expression normalization.

[2] = molecular target: T1, CID1878 (human-chicken GUCY2c chimera) (human/chicken)
T1 chain: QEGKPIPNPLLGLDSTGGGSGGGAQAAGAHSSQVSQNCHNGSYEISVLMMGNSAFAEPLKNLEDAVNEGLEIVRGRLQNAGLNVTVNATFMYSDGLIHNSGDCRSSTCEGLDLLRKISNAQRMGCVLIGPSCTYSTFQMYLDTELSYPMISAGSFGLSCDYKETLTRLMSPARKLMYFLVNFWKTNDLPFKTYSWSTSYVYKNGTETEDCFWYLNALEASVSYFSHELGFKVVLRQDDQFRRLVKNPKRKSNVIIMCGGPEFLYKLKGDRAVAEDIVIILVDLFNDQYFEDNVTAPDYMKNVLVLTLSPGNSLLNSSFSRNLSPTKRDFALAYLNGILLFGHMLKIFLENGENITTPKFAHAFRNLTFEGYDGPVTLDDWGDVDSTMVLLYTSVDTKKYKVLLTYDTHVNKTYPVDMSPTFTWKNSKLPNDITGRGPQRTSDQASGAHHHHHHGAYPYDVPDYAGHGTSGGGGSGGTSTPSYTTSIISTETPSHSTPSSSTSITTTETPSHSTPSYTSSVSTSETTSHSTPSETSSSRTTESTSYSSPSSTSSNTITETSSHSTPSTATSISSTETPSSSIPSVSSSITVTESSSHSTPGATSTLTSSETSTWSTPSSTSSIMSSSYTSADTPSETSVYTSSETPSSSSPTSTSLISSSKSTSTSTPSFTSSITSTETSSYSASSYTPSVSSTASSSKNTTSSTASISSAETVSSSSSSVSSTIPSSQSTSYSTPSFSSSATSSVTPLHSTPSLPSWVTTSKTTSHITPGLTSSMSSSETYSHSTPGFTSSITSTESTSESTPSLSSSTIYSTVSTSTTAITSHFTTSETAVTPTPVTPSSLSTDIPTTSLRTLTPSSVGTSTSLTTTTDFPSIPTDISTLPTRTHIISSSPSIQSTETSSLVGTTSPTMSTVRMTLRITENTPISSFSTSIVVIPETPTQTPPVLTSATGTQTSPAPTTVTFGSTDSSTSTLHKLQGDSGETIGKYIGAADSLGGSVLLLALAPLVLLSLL
Excerpt: as §1, §2

[3] = molecular target: T2, CID1879 (human-chicken GUCY2c chimera) (human/chicken)
T2 chain: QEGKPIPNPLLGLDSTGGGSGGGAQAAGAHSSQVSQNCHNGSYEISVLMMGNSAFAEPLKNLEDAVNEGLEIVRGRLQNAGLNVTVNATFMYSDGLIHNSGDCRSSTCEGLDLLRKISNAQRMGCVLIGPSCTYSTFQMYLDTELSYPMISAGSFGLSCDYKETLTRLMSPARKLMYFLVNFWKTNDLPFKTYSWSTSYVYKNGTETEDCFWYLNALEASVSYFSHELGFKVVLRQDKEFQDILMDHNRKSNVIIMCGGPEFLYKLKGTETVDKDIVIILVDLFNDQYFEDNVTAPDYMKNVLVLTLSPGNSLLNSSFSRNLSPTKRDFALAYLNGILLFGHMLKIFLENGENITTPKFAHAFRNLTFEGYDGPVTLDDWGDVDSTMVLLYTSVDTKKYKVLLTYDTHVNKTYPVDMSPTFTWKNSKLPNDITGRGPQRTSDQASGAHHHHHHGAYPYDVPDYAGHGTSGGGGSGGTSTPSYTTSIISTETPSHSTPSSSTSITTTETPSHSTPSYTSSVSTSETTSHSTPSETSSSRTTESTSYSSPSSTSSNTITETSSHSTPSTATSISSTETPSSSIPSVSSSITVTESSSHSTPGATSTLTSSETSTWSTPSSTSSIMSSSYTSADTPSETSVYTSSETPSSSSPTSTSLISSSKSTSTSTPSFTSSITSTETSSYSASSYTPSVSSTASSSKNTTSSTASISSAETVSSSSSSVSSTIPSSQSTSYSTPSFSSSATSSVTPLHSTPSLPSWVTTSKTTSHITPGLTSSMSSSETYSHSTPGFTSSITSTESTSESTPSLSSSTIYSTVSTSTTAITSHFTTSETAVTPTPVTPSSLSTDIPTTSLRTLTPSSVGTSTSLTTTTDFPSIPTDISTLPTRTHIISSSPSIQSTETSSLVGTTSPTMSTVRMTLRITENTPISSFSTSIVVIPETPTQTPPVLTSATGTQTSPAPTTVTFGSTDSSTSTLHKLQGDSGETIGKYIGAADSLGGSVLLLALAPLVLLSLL
Excerpt: as §1, §2

[4] = molecular target: CID1943 (human GUCY2c point mutant) (human)
Excerpt: as §1, §2

[5] = molecular target: CID1950 (human GUCY2c point mutant) (human)
Excerpt: as §1, §2

Measured: binding result

B1: GUCY2C-1608 (bispecific antibody)
chain 1: DIQLTQSPSSLSASVGDRVTITCRASESVDYYGSSLLQWYQQKPGKAPKLLIYAASKLASGVPSRFSGSGSGTDFTLTISSLQPEDFATYYCQQTRKAYTFGQGTKLEIKGGGSGGGGEVQLVESGGGLVQPGGSLRLSCAASGFTFSDYYMTWVRQAPGKGLEWVAFIRNQARGYTSDHNPSVKGRFTISRDNAKNSLYLQMNSLRAEDTAVYYCARDRPSYYVLDYWGQGTTVTVSSGCPPCPAPEAAGAPSVFLFPPKPKDTLMISRTPEVTCVVVDVSHEDPEVKFNWYVDGVEVHNAKTKPREEQYNSTYRVVSVLTVLHQDWLNGKEYKCKVSNKALPAPIEKTISKAKGQPREPQVCTLPPSREEMTKNQVSLWCLVKGFYPSDIAVEWESNGQPENNYKTTPPVLDSDGSFFLYSKLTVDKSRWQQGNVFSCSVMHEALHNHYTQKSLSLSPG
chain 2: DIQMTQSPSSLSASVGDRVTITCTSSQSLFNVRSQKNYLAWYQQKPGKAPKLLIYWASTRESGVPSRFSGSGSGTDFTLTISSLQPEDFATYYCKQSYDLFTFGGGTKVEIKGGGGSGGGGEVQLVESGGGLVQPGGSLRLSCAASGFTFSSYWMHWVRQAPGKGLEWIGEIKPSNELTNVHEKFKDRFTISVDKAKNSAYLQMNSLRAEDTAVYYCTRTITTTEGYWFFDVWGQGTLVTVSSGCPPCPAPEAAGAPSVFLFPPKPKDTLMISRTPEVTCVVVDVSHEDPEVKFNWYVDGVEVHNAKTKPREEQYNSTYRVVSVLTVLHQDWLNGKEYKCKVSNKALPAPIEKTISKAKGQPREPQVYTLPPCREEMTKNQVSLSCAVKGFYPSDIAVEWESNGQPENNYKTTPPVLDSDGSFFLVSKLTVDKSRWQQGNVFSCSVMHEALHNHYTQKSLSLSPG
notes: also called GUCY2c CD3 bispecific
binds: all assays above
